Experiments:
[1] = biological target: LAG3 (residues 1-477) C-terminally fused to the beta-galactosidase ProLink (PK) fragment, on U2OS cells (human); test: cell-based or functional assay
[2] = biological target: PD-1 (residues 1-199) C-terminally fused to the beta-galactosidase enzyme acceptor (EA) fragment, on U2OS … (human, UniProt Q15116 25-199); test: cell-based or functional assay

LAG3 (residues 1-477) C-terminally fused to the beta-galactosidase ProLink (PK) fragment, on U2OS cells (human), sequence (P18627 1-477): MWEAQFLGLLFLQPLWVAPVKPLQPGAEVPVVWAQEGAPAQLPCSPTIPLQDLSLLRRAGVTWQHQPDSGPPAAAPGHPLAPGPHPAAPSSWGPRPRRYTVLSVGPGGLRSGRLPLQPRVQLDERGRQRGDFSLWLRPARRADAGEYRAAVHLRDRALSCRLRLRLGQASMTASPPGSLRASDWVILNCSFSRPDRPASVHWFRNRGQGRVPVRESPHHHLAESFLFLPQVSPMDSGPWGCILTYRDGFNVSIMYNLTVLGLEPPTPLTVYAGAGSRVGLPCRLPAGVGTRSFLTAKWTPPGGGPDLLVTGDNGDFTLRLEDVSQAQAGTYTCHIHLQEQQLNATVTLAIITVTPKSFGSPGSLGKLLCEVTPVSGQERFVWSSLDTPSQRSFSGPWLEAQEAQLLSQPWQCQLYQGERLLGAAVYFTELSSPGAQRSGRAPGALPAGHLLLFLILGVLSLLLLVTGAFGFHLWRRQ

EC50 of beta-galactosidase enzyme-fragment complementation (RLU) on U2OS cells co-expressing PD-1-EA and LAG3-PK; PD-1/LAG3 cell bridging, needs both targets [1] [nM]	EC50 of beta-galactosidase enzyme-fragment complementation (RLU) on U2OS cells co-expressing PD-1-EA and LAG3-PK; PD-1/LAG3 cell bridging, needs both targets [2] [nM]	Binder
0.16	0.16	PD-1/LAG3 Bi-specific Construct B: aPD1 1353-G10 scFvFc zwB R28T/P30D/H31S V262E; aLAG3 1449-G09.2 Fab zwA V262E (bispecific antibody, human IgG1, kappa, The N-terminal Met is not included) scFv: EVQLVQSGAEVKKPGASVKVSCKASGYTFDSYGISWVRQAPGQGLEWMGWISAYNGNTNYAQKLQGRVTMTTDTSTNTAYMELRSLRSDDTAVYYCARDVDYGTGSGYWGQGTLVTVSSGGGGSGGGGSGGGGSSYELTQPPSVSVSPGQTARITCSGDALPKQYAYWYQQKPGQAPVMVIYKDTERPSGIPERFSGSSSGTKVTLTISGVQAEDEADYYCQSADNSITYRVFGGGTKVTVLAAGSDQEPKSSDKTHTCPPCPAPELLGGPSVFLFPPKPKDTLMISRTPEVTCEVVDVSHEDPEVKFNWYVDGVEVHNAKTKPREEQYNSTYRVVSVLTVLHQDWLNGKEYKCKVSNKALPAPIEKTISKAKGQPREPQVYVLPPSREEMTKNQVSLLCLVKGFYPSDIAVEWESNGQPENNYLTWPPVLDSDGSFFLYSKLTVDKSRWQQGNVFSCSVMHEALHNHYTQKSLSLSPGK heavy: not shown light: not shown
0.13	0.13	PD-1/LAG3 Bi-specific Construct C: aPD1 1353-G10 Vk1-39LC scFvFc zwB V262E; aLAG3 1449-G09.2 Fab zwA V262E (bispecific antibody, human IgG1, kappa, The N-terminal Met is not included) scFv: EVQLVQSGAEVKKPGASVKVSCKASGYRFPHYGISWVRQAPGQGLEWMGWISAYNGNTNYAQKLQGRVTMTTDTSTNTAYMELRSLRSDDTAVYYCARDVDYGTGSGYWGQGTLVTVSSGGGGSGGGGSGGGGSDIQLTQSPSSLSASVGDRVTITCSGDALPKQYAYWYQQKPGKAPKLLIYKDTERPSGVPSRFSGSSSGTKVTLTISSLQPEDFATYYCQSADNSITYRVFGGGTKVEIKAAGSDQEPKSSDKTHTCPPCPAPELLGGPSVFLFPPKPKDTLMISRTPEVTCEVVDVSHEDPEVKFNWYVDGVEVHNAKTKPREEQYNSTYRVVSVLTVLHQDWLNGKEYKCKVSNKALPAPIEKTISKAKGQPREPQVYVLPPSREEMTKNQVSLLCLVKGFYPSDIAVEWESNGQPENNYLTWPPVLDSDGSFFLYSKLTVDKSRWQQGNVFSCSVMHEALHNHYTQKSLSLSPGK heavy: not shown light: not shown

From patent US20200079850A1 (SUTRO BIOPHARMA, published 2020)
